The values below come from paper PMC8580058 (ACS catalysis, 2019).

Data set [1] addresses glucose-6-phosphate dehydrogenase (G6PDH) (Thermotoga maritima, UniProt Q9X0N9). In words: specific activity of purified enzyme. To be noted: co-substrate glucose 6-phosphate. Type of data set: biochemical.
Substrate in data set [2]: NC(=O)c1ccc[n+]([C@@H]2O[C@H](COP(=O)(O)OP(=O)(O)OC[C@H]3O[C@@H](n4cnc5c(N)ncnc54)[C@H](OP(=O)(O)O)[C@@H]3O)[C@@H](O)[C@H]2O)c1
In words: steady-state kinetics of purified enzyme. Type of data set: biochemical, Thermotoga maritima. Conditions: apparent constants; co-substrate 6-phosphogluconate; assay details in supplement.

Substrate in data set [3]: NC(=O)c1ccc[n+]([C@@H]2O[C@H](COP(=O)([O-])O)[C@@H](O)[C@H]2O)c1
In words: steady-state kinetics of purified enzyme. Type of data set: biochemical, Thermotoga maritima. To be noted: apparent constants; co-substrate 6-phosphogluconate; assay details in supplement.

The term Km denotes the substrate concentration at which the rate is half of its maximum. Usually kcat stands for the maximal rate divided by the concentration of active sites. As a reminder, the kcat/Km is the turnover number divided by the Michaelis constant.

Sequence of glucose-6-phosphate dehydrogenase (G6PDH) (Q9X0N9 whole entry): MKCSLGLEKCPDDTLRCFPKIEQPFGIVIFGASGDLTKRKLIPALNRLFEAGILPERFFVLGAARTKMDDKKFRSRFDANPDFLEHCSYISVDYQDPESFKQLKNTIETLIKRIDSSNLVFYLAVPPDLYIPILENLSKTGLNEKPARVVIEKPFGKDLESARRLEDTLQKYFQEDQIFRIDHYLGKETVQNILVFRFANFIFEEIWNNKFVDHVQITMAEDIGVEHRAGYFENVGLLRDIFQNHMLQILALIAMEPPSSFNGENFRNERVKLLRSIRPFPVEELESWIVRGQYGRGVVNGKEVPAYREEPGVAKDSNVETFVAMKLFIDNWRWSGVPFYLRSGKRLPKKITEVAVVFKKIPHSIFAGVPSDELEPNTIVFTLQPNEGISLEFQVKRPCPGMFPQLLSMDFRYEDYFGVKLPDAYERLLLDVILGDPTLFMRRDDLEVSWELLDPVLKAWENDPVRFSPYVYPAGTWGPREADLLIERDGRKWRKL

For `NC(=O)c1ccc[n+]([C@@H]2O[C@H](COP(=O)([O-])O)[C@@H](O)[C@H]2O)c1` [NMN^+], in data set [1], the “specific activity of purified enzyme” value is given as “color intensities of colonies positively correlated with the specific activities of the purified dehydrogenases on NMN^+”.

B1: 6-phosphogluconate dehydrogenase (6PGDH) (Thermotoga maritima MSB8) (protein)
chain: MKSHIGLIGLAVMGQNLALNIARKGYKVSVYNRTAQRTEEFVKNRVTNEEIEPHYDIESFVKSLERPRKIILMVKAGKPVDDTISQLLPHLEPGDLIIDGGNSHYMDTERRFKELSEKGILFLGMGVSGGEYGALHGPSLMPGGSREAYNLVEEILLEIAAKTEDGPCCTYVGERSAGHFVKMVHNGIEYAIMQAIAEVYHIMRDVLSLSSEEMSSIFEEWNRGELSSFLVEITYKILRKKDEETGKPMVDVILDKAEQKGTGKWTSQAALDLGIPTPSINLAVVERVISHFKDIRTRLSKLYNKRRSATQGSEEFLRDLRNSLFFAMFMAFSQGMWLIAEASKEFGYGVSLSEVLRIWKGGCIIRAKLIDTLRRYISNENAYLLENEEVMNLLKGKIDSLKNILKASIENEIPVPVLSSSYNYFMSLTEERLPANLIQAQRDFFGAHTFERVDREGVFHINWEEGEIG
Take B1: in data set [2], the Km is 0.0012 ± 0.0001 mM, the catalytic constant (kcat) was determined as 15.9 ± 0.2 s⁻¹ and the kcat/Km came out at 1.34e+07 M⁻¹ s⁻¹. Besides, in data set [3], the Km worked out at 30.6 ± 1.7 mM, the turnover number (kcat) stood at 1.3 ± 0.1 s⁻¹ and the catalytic efficiency (kcat/Km) was determined as 42 M⁻¹ s⁻¹.

B2: 6-phosphogluconate dehydrogenase (6PGDH) (Thermotoga maritima MSB8; A11G/R33I/T34I) (protein)
chain: MKSHIGLIGLGVMGQNLALNIARKGYKVSVYNIIAQRTEEFVKNRVTNEEIEPHYDIESFVKSLERPRKIILMVKAGKPVDDTISQLLPHLEPGDLIIDGGNSHYMDTERRFKELSEKGILFLGMGVSGGEYGALHGPSLMPGGSREAYNLVEEILLEIAAKTEDGPCCTYVGERSAGHFVKMVHNGIEYAIMQAIAEVYHIMRDVLSLSSEEMSSIFEEWNRGELSSFLVEITYKILRKKDEETGKPMVDVILDKAEQKGTGKWTSQAALDLGIPTPSINLAVVERVISHFKDIRTRLSKLYNKRRSATQGSEEFLRDLRNSLFFAMFMAFSQGMWLIAEASKEFGYGVSLSEVLRIWKGGCIIRAKLIDTLRRYISNENAYLLENEEVMNLLKGKIDSLKNILKASIENEIPVPVLSSSYNYFMSLTEERLPANLIQAQRDFFGAHTFERVDREGVFHINWEEGEIG
For the molecule B2, in data set [2], the Km was 2.1 ± 0.1 mM, the kcat is 28.3 ± 0.6 s⁻¹ and the kcat/Km is 13200 M⁻¹ s⁻¹. Further, in data set [3], the Km worked out at 20.7 ± 0.7 mM, the catalytic constant (kcat) worked out at 10.2 ± 0.2 s⁻¹ and the kcat/Km stood at 490 M⁻¹ s⁻¹.

B3: 6-phosphogluconate dehydrogenase (6PGDH) (Thermotoga maritima MSB8; A11G/D82L/Q86L/R33I/T34I/T83L) (protein)
chain: MKSHIGLIGLGVMGQNLALNIARKGYKVSVYNIIAQRTEEFVKNRVTNEEIEPHYDIESFVKSLERPRKIILMVKAGKPVDLLISLLLPHLEPGDLIIDGGNSHYMDTERRFKELSEKGILFLGMGVSGGEYGALHGPSLMPGGSREAYNLVEEILLEIAAKTEDGPCCTYVGERSAGHFVKMVHNGIEYAIMQAIAEVYHIMRDVLSLSSEEMSSIFEEWNRGELSSFLVEITYKILRKKDEETGKPMVDVILDKAEQKGTGKWTSQAALDLGIPTPSINLAVVERVISHFKDIRTRLSKLYNKRRSATQGSEEFLRDLRNSLFFAMFMAFSQGMWLIAEASKEFGYGVSLSEVLRIWKGGCIIRAKLIDTLRRYISNENAYLLENEEVMNLLKGKIDSLKNILKASIENEIPVPVLSSSYNYFMSLTEERLPANLIQAQRDFFGAHTFERVDREGVFHINWEEGEIG
For B3, in data set [2], the Km was determined as 0.39 ± 0.02 mM, the kcat is 21.1 ± 0.3 s⁻¹ and the kcat/Km is 53700 M⁻¹ s⁻¹. In addition, in data set [3], the Km was determined as 27.5 ± 1.2 mM, the kcat is 19.3 ± 0.4 s⁻¹ and the specificity constant (kcat/Km) amounted to 700 M⁻¹ s⁻¹.

B4: 6-phosphogluconate dehydrogenase (6PGDH) (Thermotoga maritima MSB8; R33I/T34I) (protein)
chain: MKSHIGLIGLAVMGQNLALNIARKGYKVSVYNIIAQRTEEFVKNRVTNEEIEPHYDIESFVKSLERPRKIILMVKAGKPVDDTISQLLPHLEPGDLIIDGGNSHYMDTERRFKELSEKGILFLGMGVSGGEYGALHGPSLMPGGSREAYNLVEEILLEIAAKTEDGPCCTYVGERSAGHFVKMVHNGIEYAIMQAIAEVYHIMRDVLSLSSEEMSSIFEEWNRGELSSFLVEITYKILRKKDEETGKPMVDVILDKAEQKGTGKWTSQAALDLGIPTPSINLAVVERVISHFKDIRTRLSKLYNKRRSATQGSEEFLRDLRNSLFFAMFMAFSQGMWLIAEASKEFGYGVSLSEVLRIWKGGCIIRAKLIDTLRRYISNENAYLLENEEVMNLLKGKIDSLKNILKASIENEIPVPVLSSSYNYFMSLTEERLPANLIQAQRDFFGAHTFERVDREGVFHINWEEGEIG
For the molecule B4, in data set [2], the Km is 11.5 ± 1.1 mM, the kcat came out at 14.8 ± 0.7 s⁻¹ and the kcat/Km was found to be 1300 M⁻¹ s⁻¹. In addition, in data set [3], the Km came to 37.9 ± 3.6 mM, the kcat amounted to 1.7 ± 0.1 s⁻¹ and the kcat/Km came out at 46 M⁻¹ s⁻¹.

B5: 6-phosphogluconate dehydrogenase (6PGDH) (Thermotoga maritima MSB8; A11G/A447V/D294V/D82L/I120F/K27R/N387S/Q86L/R33I/T34I/T83L/Y383C) (protein)
chain: MKSHIGLIGLGVMGQNLALNIARKGYRVSVYNIIAQRTEEFVKNRVTNEEIEPHYDIESFVKSLERPRKIILMVKAGKPVDLLISLLLPHLEPGDLIIDGGNSHYMDTERRFKELSEKGFLFLGMGVSGGEYGALHGPSLMPGGSREAYNLVEEILLEIAAKTEDGPCCTYVGERSAGHFVKMVHNGIEYAIMQAIAEVYHIMRDVLSLSSEEMSSIFEEWNRGELSSFLVEITYKILRKKDEETGKPMVDVILDKAEQKGTGKWTSQAALDLGIPTPSINLAVVERVISHFKVIRTRLSKLYNKRRSATQGSEEFLRDLRNSLFFAMFMAFSQGMWLIAEASKEFGYGVSLSEVLRIWKGGCIIRAKLIDTLRRYISNENACLLESEEVMNLLKGKIDSLKNILKASIENEIPVPVLSSSYNYFMSLTEERLPANLIQAQRDFFGVHTFERVDREGVFHINWEEGEIG
Consider B5, for which, in data set [2], the Km was found to be 0.22 ± 0.01 mM, the kcat was 21.9 ± 0.2 s⁻¹ and the kcat/Km was determined as 101000 M⁻¹ s⁻¹. In data set [3], the Km is reported as 15.1 ± 0.6 mM, the kcat came to 18.9 ± 0.4 s⁻¹ and the kcat/Km was 1250 M⁻¹ s⁻¹.

B6: 6-phosphogluconate dehydrogenase (6PGDH) (Thermotoga maritima MSB8; A11G/A447V/D294V/D82L/F326S/F60Y/I120F/K118N/K27R/N387S/Q86L/R33I/T34I/T83L/Y383C) (protein)
chain: MKSHIGLIGLGVMGQNLALNIARKGYRVSVYNIIAQRTEEFVKNRVTNEEIEPHYDIESYVKSLERPRKIILMVKAGKPVDLLISLLLPHLEPGDLIIDGGNSHYMDTERRFKELSENGFLFLGMGVSGGEYGALHGPSLMPGGSREAYNLVEEILLEIAAKTEDGPCCTYVGERSAGHFVKMVHNGIEYAIMQAIAEVYHIMRDVLSLSSEEMSSIFEEWNRGELSSFLVEITYKILRKKDEETGKPMVDVILDKAEQKGTGKWTSQAALDLGIPTPSINLAVVERVISHFKVIRTRLSKLYNKRRSATQGSEEFLRDLRNSLFSAMFMAFSQGMWLIAEASKEFGYGVSLSEVLRIWKGGCIIRAKLIDTLRRYISNENACLLESEEVMNLLKGKIDSLKNILKASIENEIPVPVLSSSYNYFMSLTEERLPANLIQAQRDFFGVHTFERVDREGVFHINWEEGEIG
As for B6, in data set [2], the Km is 0.21 ± 0.01 mM, the kcat stood at 23.6 ± 0.3 s⁻¹ and the kcat/Km was found to be 113000 M⁻¹ s⁻¹. Moreover, in data set [3], the Km worked out at 16.0 ± 1.1 mM, the kcat worked out at 25.8 ± 0.8 s⁻¹ and the kcat/Km stood at 1620 M⁻¹ s⁻¹.
